Measured values: a protein production outcome set (Wang et al. 2014)

Assay: label from the status in PepcDB records

Question: With “MPGVLVTGGTGKTGKVLVQVLRNAGVQARVASRNPAAADPDPIRFDWNDPTTYGPALDGMDRVFLLPPVESVDPLPLVEPFLRRAQRAGVQRLVMLGSAIVLPNAPSAVEMAAQVQAQPGGVVLRASGFMQNFLRPHPLAEHIHRLGEIRTAAGDGRLGWVDARDIAASAAALLADLEVDARSDYLITGPHGMSYPQAAQIITAQTGRRVRVERITEEEQAAAHRASGMPPAFADALAAVERGIKEGREDQVSTAVLELTGRPPRTFAEFVSDHAYEWTQ” as the sequence, how does the protein production read?
Answer: failed

Question: With “MHFRLILSMIVVTHTAVVQVLIHMEWIADPSIWAGLVTLVVIELVLGIDNLVFIAILAEKLPPAQRDRARITGLMLAMVMRLLLLASISWLVTLTKPLIVFHDFSFSARDLIMLFGGLFLLFKATVELNERLEGKDSDNPTQRKGAKFWAVVAQIVVLDAIFSLDSVITAVGMVDHLAVMMAAVVIAISLMLMASKALTRFVNSHPTIVILCLSFLLMIGFSLIAEGFSFIIPKGYLYAAIGFSVMIEALNQLAQFNRRRFLSANMTLRQRTTEAVMNLLSGQKEKAELDADTASLVADQDQHPLFNPQERLMIERVLNLNQRSVSSIMTSRHDIERINLSAPEEEIRSLVEKNQHTRLVVTGGKDNEDLLGVVHVIDLLQQSLRQEPLDLQALVRQPLVFPEGLPLLSALEQFRQARTHFAFVVDEFGSVEGIVTLSDVMETIAGNLPNEVEEIDARHDIQHHQDGSWTVNGHMPLEDLVQYVPLPLDDKREYHTVAGLLMEYLQHVPQVGETIEIDGYTLRTLQVDSHRVQKVQIVPPVKQDELDYEV” as the sequence, how does the protein production read?
Answer: failed

Question: Which protein production does the source give for “MKWIDSHIHVDQYKDEEKSRLLKEVENSKEIKGLIAVSMNYQSCKETLSLAKKYPFIYPAIGFHPEQQIHKEECEQIYQLIEQNAEEIVAIGEVGLPYYLRKEDERIAADPYIAVLKKFIELASKYNLPIVLHAVYEDADIVCDLLEKYKVSRAHFHWFKGSDETMKRMMRNGYYISITPDVLHKEKIRKIVSYYPLEYMMVETDGPWEFQEDVITHPRMIREVLKEISSIKNISIDKVAETIYENTSRFYLK” here?
Answer: failed

Question: For “MSVNESVNRIVGGSGVILAGTFLGMLLDILIKKVMTSHLSPADFGTYSLALTVISITGAVATLGLNEGVPRYIAFFRGRQEEQKVHELIISAILMGLIAGLLAILVSPSLFESLAGKGFDAQGQILSVVKILVFAIPFTILLNLTVAIYRGFDRTNVNMYFYNIIRPLSLLGFASAAVYFGASLKGVVFADLISMVFTFSIMSVYFVKKPPVKPEWKIKFSEPTRQLIRYSFPLLITATLLNLMSWIDTIMLGYFRPAEVVGVYNAVYPIVGFLSLVIASMGYVYVPVASKLWGLNKTQPVGSIYAVMTKWCFLLTFPIFALIFVYPEFLITKLYGAEYVGGTTALRILAMGFIANSYFGFNYHTLLASGDSDFLMRCSVASAGINAVVNFMLIPEYGMIGAAIGTAVSYASIEVSMTLRAWRKQKMHPFTSMYRKLTLVCVVMTATMLAAKIIIPLSGAAWEYAVFIIVYFAVIHYAKILDKDEISMVDEIRKNIRQNVSVHVPQAIKTLVP”, which protein production is on record?
Answer: failed

Question: Which protein production does the source give for “MELSRGASAPDPDDVRPLKPCLLRRNHSRDQHGVAASSLEELRSKACELLAIDKSLTPITLVLAEDGTIVDDDDYFLCLPSNTKFVALACNEKWTYNDSDGGTAWVSQESFEADEPDSRAGVKWKNVARQLKEDLSSIILLSEEDLQALIDIPCAELAQELCQSCATVQGLQSTLQQVLDQREEARQSKQLLELYLQALEKEGNILSNQKESKAALSEELDAVDTGVGREMASEVLLRSQILTTLKEKPAPELSLSSQDLESVSKEDPKALAVALSWDIRKAETVQQACTTELALRLQQVQSLHSLRNLSARRSPLPGEPQRPKRAKRDSS” here?
Answer: not failed

Question: Which protein production does the source give for “METKGTGMTVNTVDVSAGRAQQVLREGWAAQRAGALTTSWMLHGRPGVGKTEIVRQLAAEQGARFYDLRLTTIESQDLRGLPYYDHETKKTQWYRPEDLPDDPDRPSLLFLDELTAAPPHLHPAVYGLLLERRVGPHILPDNVFLVAAGNMVEDGAVAYEMGTALSDRLIHLQVRATASDWLESYAVPRTLHPAVLAFIRMRPDLLETTAEALDRGLMISTTPRSWDRVSRIMGAVQDRALRRIMVAGTVGEAVAAEFMLVADDIEASVSVERLLNAAPHERIMLYPESMHGLHALIYGLVGALGPTTAVPVIDVMAGIRTLDVHRSDASFARMPLAELCTHGFEMAIRRGLEQGLAEDFLGHPAYAAYASERQAMGLELEHHHHHH” here?
Answer: failed

Question: Which protein production does the source give for “MKRFPGRDMRSLTELVLGRDKFRTALCCSVVGMLLTLLFLSSCHYTRPDLTSEELSEKTKDSLNYLYDRHYTWNTNLEVTTDSVTMECLPIKDTYIALYKGDRVVVAEFAIHPADSVDSVWVKLAHTQEEQGWIRETELKESFVPTDSISQAIHFFSDTHASYFMIIFALFVGVYLFRAFRRKQLQLVYFNDIDSVYPLFLCLLMAFSATVYESMQVFVPDTWEHFYFNPTLSPFKVPFILSVFLLSIWLFLIVALAVLDDLFRQLTPAAAVFYLLGLMSSCIFCYFFFILMTHIYIGYLFLAFFIWVFAKKVHRNISYKYRCGHCGEKLKEKGICPHCGAINE” here?
Answer: failed

Question: With “MSCGYTGPINEQNKENIKRAIAMHAAARRTRMLQQLREGLQLYRLVDIMEKNKEVCRSHFVFEGGNDQVDSQYIVSHLDPKMSESGTLKHSKEMQILNNFQDFLMELEDGGPEDEEALCVSKVMQWLSGQAHVHLLLSERQAFKITVLFDHTCMERMPDHRICYPVDSAWTQTITFPTAHSTSLNQFKENMRIAVQQGAYFYRV” as the sequence, how does the protein production read?
Answer: failed

Question: Which protein production does the source give for “MAQADTPAPVARLPRRRGIELALILMAVLLSVFGYCNVGLAQHDALPPGAAGYGAGLGVLALLAHLAVRLRAPYADPLLLPIGVLLNGLGLVLIYRLDLETPGDRAAPTQLVWSTLGVALFIVVVLLLRDHRVLQRYAYVCVAAALALLTVPIFFPAVNGARIWIRIEGFSIQPGEFAKVLLAVFFAAYLAANRSALAYAGRRVWRLQLPTGRVLGPILAVWLVSVGVLVLERDLGTSLLFFGLFVVLLYVATGRTGWIAVGLLLASLGAVAVGWLEPHVHSRVEDWLHPFASIEAGHGPNQLAQSLFAFAAGGVTGTGLGLGHSVLIGFAVKSDFILATAGEELGFLGLSAVFLLYGLLVERGYRAGLGARDPFGRLLAVGLSSIVALQVFVIAGGVTGLIPLTGMAMPFLAQGGSSVVTNWAIVALLIRVSHAARSQAGGRAEP” here?
Answer: failed

Question: With “MRYLSKDILEEVITQRPSDSYKSNFGRVVLIGGNRQYGGAIIMSTEACINSGAGLTTVITDVKNHGPLHARCPEAMVVGFEETVLLTNVVEQADVILIGPGLGLDATAQQILKMVLAQHQKQQWLIIDGSAITLFSQGNFSLTYPEKVVFTPHQMEWQRLSHLPIEQQTLANNQRQQAKLGSTIVLKSHRTTIFHAGEPFQNTGGNPGMATGGTGDTLAGIIAGFLAQFKPTIETIAGAVYLHSLIGDDLAKTDYVVLPTKISQALPTYMKKYAQPHTAPDSELLEQKRSR” as the sequence, how does the protein production read?
Answer: not failed

Question: With “AQGVGVEAILLLRRECQASHEDALHLGLAEHAPVIELQTLRKLDGQAVSLIFHRYSAVYHELLADYQGGSVRQYLAECGLPLSRAQSLIGARLPSREEAGLLLMPRHMPALTVLTVSCDGAGQPVELSRSVSRSDRFQ” as the sequence, how does the protein production read?
Answer: failed

Question: With “DLQAYLQAHYDVLEGKIQLDINGTEIQKGVWVGSGAIIEPGAILNPPCVIGDNCRIESGAVIDSLSVIGNNNVIERDSSVKRSVIWDGNYIEYGSK” as the sequence, how does the protein production read?
Answer: failed

Question: For “RNKPKGHLRIAIGGSTACDVLIPLLADFMTSWPDIRINLQVADKPADLISGNIDSAIRGGPMEDSTLIARKIGEATLVTCATPGYLQRYGTPASPDELHHGHRLISYLSPASGRAFPFRFTRH”, which protein production is on record?
Answer: failed

Question: For “MDETPIFKIKKLTIAENDRSEYIRYAEKNMHDSIPAEEGTLLIGSGHDDAHGEDNYEIEVFRNKGAEDLHIAGSHADDFVETVNKIATKQKVIDLHPEVITTKAQRALNSYADNFVMRLIKVEVKDADAEKFSHAVKKEMTTSMASEPGMEIMMSGTNIDNPNEWYFIEVYANDEAYDIHVKTPHYKEYIEETDGMVKSRDVKTLVRDTLATQGAIVLD”, which protein production is on record?
Answer: not failed

Question: Which protein production does the source give for “MSSQLDECNRLLWEKCPVGLVLWRKNGALIDANSTYAAILGSTVPETLNFNYWQITPENYLASERTILEQLEQTGCHQAYEKEYLHQDGHLVPVKVSTVIIEKDGEKLMWSSVEDIS” here?
Answer: not failed

Question: With “MGSVPMGHKRISFHIVQTTRSGDRSASRTSVEEASDQGPSPWTTADSAIFQLRWSCVWRRAVSTSANIEDGADAAFVASPPPFGAGVADLYQALLVPILFEPYALEMAIVAERSKPVSVLEVAAGTGALTRALRAKLDPAAEIVATDLSQAMIDVGAPSVTMSRTHWMHADAQDLPFAPLMFDLVVCQFGVMFFPDKPKAYHEAKRVLRSGGRLLFSTWDSLAANDFARCVDECLTGLFPSDPPDFLGRLPYSYFDPSLIKAEVSSAGFKAVSCERLELASIAATSQDVATAFCRGTPLSGEIEWRAPERMSEIVDEVAERVASRYGARPCGSMSALVVSGRAP” as the sequence, how does the protein production read?
Answer: failed

Question: Which protein production does the source give for “MNNEAVFSARLSSTQHVGLCRLCNSPLVHTFVDLGMSPPCESFVAADAANDVEPFYPLHAFVCDECFLVQLQEYVAPENIFTEYAYFSSFSDSWVAHAKRYCDMVIERFALGQSSFVVELASNDGYLLQHFLTSNIPMLGIEPAVNVAKVAIGKGIPTLTEFFNEALATDMAARGQKADLIIGNNVLAQVPDINDFVAGMKTLLKPEGVITLEFPHIEKLIAENQFDTIYHEHFSYFSLLTIEKMARRHGLKVFDVEEIPTHGGSLRVFFSHEDIRFPREARVDSLLARELNAGLDKIETYTAFAEAVRQTKRNLLSFLIRLKEMRKSICAYGAPGKGNTLLNYCGIGTDFIDFAVDRNPYKHGRLTPGMHIPIRPVSEIPHMKPDYVLILPWNLKNEIVAQMKDIRNWGGKFIVPIPDISIIDPKELVQ” here?
Answer: failed

Question: For “MSDRFVIWAPSMHNEPAAKCGYCHGNKGGNMDQLFALDSWAHRYMNKMDVVKIENCTIGSFVEHMDVATYDRMCNMGFRRSGKFLYKVDPLRNCCRLYTIRTAPQELNMTKELKKCISRFATRITSEDYCPAAVASSDFVGKIVNAEMNSKTFYTRFEPALYSEEKYHLFVKYQEKVHQDYNNSPKSFKRFLCDTPFGPEAVLGTQESWEQLNNWQRMKPGEKLKHMGPVHECYYYEGKLIAITVSDILPSGISSVYFIWDPDYSKWSLGKLSALRDLAIIQRTNLQYYYLGYYIEDCPKMNYKANYGAEVLDVCHSKYIPLKPIQDMISRGKLFVIGEEETKVTKELYLVDSETGRGEGFPTDNVVKYKNIAEEIYGVGGCAFKSANESALELKELYGIPYEEEDLDTIYHLKEHNGHAPNGIPNVVPGLLPLWELLDIMQSGKITDLEGRLFLFEIETEGIRPLINFYSEPPNVKKRICDVIRLFGFETCMKAVILYSEQM”, which protein production is on record?
Answer: failed

Question: With “MSSESRNLNRFFLYFAGILIFFIYITPCLATYNFEGTPEQDELIEITSGTVKGGLYVDGGEGLKKTPYVQEFNVPGDVVTWARVYVGVWGGTEEKTGTLDLTINGEEFESLDLEGKNDKGDDEDQNPAIYCTGHGVYWIAYDVGTNISTGPVTVEAQTEGDIDGRVYGIILAAVYEDKEGQSTKYWVEEGNINLHGKGWSETLASTHDEGYADFSGKVDTDKYNTANLAVVYLCGTPGLDDSLYFNEEQLSDGENSNDIANSKSYFDFKFFDVLDLLEEDDNELKFQRDEEDYVHPVLAALTLGTGEEGTSDLIVSGLTVPLLYAGKDNTIKASIKNIGKDSAYGFQAALYADGEIVSTAPVSSLSSGKSKTIEFNWKPAWDGEQALKVYVDYTNKKKETCEVNNWNSPFLAKVVDLTPPELEIDYPEDGARVDAGYLTVSGTIEDTNRNLTVDVNGQNALISGESWSASVPVVSGPNTIVVSAVDGENNTGRELIVVEGKESSTDSKESSQSDLTVSSKAENETEPVNQSILGSQTREYEKQAVLSPISEGIGFISAILFLRYRNRGKRL” as the sequence, how does the protein production read?
Answer: failed

Question: For “MICCLGPRGSYSEKAAVTFSKAINDSEIQFEDSIYNVFKAVETNPEFFGVVPSENSIGGSVSITQDLLLEFPVKILGEVDISINHCLLGYDIKKVTEVLAHPQALAQCGHYITKNNWNITPVDSNAKAAKIVSEEKDEKLAAICGVENAEIYGLNVLDEYIQDFKNNTTRFFLICNKNK”, which protein production is on record?
Answer: failed
